Data as given in the supplement of paper PMC11502859.
Several values for one entry are separate records, joined by “and”; a condition that tells them apart may be missing. Equal entries are not always repeated.

Tested on: HEK293T
Assay: median enrichment of reporter reads in eGFP-reduced (low/intermediate) vs eGFP-high sorted cells (eGFP-extension fusion abundance) (ratio); higher = stronger loss of eGFP-fusion protein abundance (more destabilising extension)
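Also: lentiviral eGFP-IRES-mCherry reporter pool sorted by FACS 96 h post-transduction, gated on mCherry-high cells, Illumina read counts normalized per million, median across four biological replicates.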

Substance | median enrichment
RGRLNPPNINSHPSLHSCLPLFTFILRVQKFQVSFELYFVCQFHAYFSFIRES [CNTD1] | 5.36
STFLHTQPLLYSTSCPGASHTPELICIILTIFSLLSPFFLFERPSLISKM [TRIM5] | 16.6
YFMSFSISAADLC [DNAJC6] | 25.5
KPGNPYSFSNTGSFI [ADAM30] | 0.59
RFLVTA [GXYLT1] | 2.37
READTFFQQ [ADAM12] | 0.392
SASAEVTEKPYDDVPDFSVGRSRPVA [TCF25] | 0.734
YFFI [ATP2B1] | 9.67
YSQPQLMPSQSQPPVTPSQSQPRVTPSQSQPHVTPYRSKSGKQKQSVPIPKTVSRKGTLKK [ADAM29] | 0.413
YKMIVLTPYTNVLLLALIKLLEG [MAX] | 15.5
RMKSTASE [SERPINI2] | 0.64
WSLTRSLISRSTCVFIPPGN [FLT1] | 4.28
YQLINLE [BRWD3] | 0.91
GWLPRPGRLLDILFWLNIVLWMVPQSGARILPRRKATNGSGNYIKPETLQQGENCAPGCLAQASLEPSKHFCPS [MAB21L3] | 7.37
WTYVLC [OR2L5] | 7.99
SEVRPGPGQGLGPAPCPICSGPQAPPFEEVG [GUCY2D] | 1.47
HHHHHHH [His07] | 0.367
GKSPVSQHRGAALHTCGETFPAGPRESDSKNNRCCFSRVM [HABP4] | 8.99
QRLQCLLRRKIKFTSSKVTLEDRALGMSFFF [OR2C3] | 5.9
NRRRRWRERQR [Degron FEM1C] | 21.1
LHTQSPGVGHTAVISQS [ALLC] | 0.756
QGPAPRTDSTRKPNDVPARRPRRAAFPLVLEKLEHPVTALFAMGTGTLFYTMLPPSPP [CARM1] | 3.47
YVD [GLUL] | 0.387

Substance | median enrichment
YEAVMRMVL [SETDB1] | 4.84 and 3.68
GSPLCLGLLLPREFSPLTYPHLSGLTGRNHCTTERGWDGPASCLWEKTSCLGRGLCLVKVPTGNP [ITGAX] | 5.38
YFFHKIC [CCDC102B] | 10.6
LWAHHKDTSSLCRHHPAIESGGPCWSLWTYSSRPEKSLALELNSLDCTITTTYELRDYEGLFRGYESEPLFLEL [TMEM177] | 9.96
SGLELYPGPNSRTTRGLQTFLGGQAGQMAPPLGNAPSCAVERS [ELF3] | 2.16
RLQSVVLVPLSQCRLVFLHILSMA [CDC16] | 7.48
SPSDYIFNTTPPTPSWVRVSPVCPRPIKSTCHC [GPS2] | 5.9
RVAVWEPLCLAPGYPGPGNLRAGERWGGRHAEVLLVTGLPSLTCTYLHPELSSSPSSCLLLPTCLPSAGAPRPTHSYCTVHFI [SLC36A1] | 3.4
KRKLKNGCLELVLQLL [REG1B] | 6.65
RLYRLRR [ST3GAL6] | 10.7
LTEPCWPAPTSLCSFLWFLLSFPTLRREIYFTALNSL [UBTD2] | 9.94
YDSPGLKLGSRPAR [PTGDS] | 3.48
CPLSATHVVPSLPSFHLDVPPSPTSAPLLPRLDLKPELPLNLEYATYNMQAAKHPFCTRRLEWNCHVQ [PRR20A] | 5.57
LNREKKLQVVLKEMQLFKSLCIVLILFTMCNHLENGYFYNLNNKQVLS [C8orf34] | 2.33
LLLLLL [Leu06] | 6.86
GRTRRFNRASVVSPVGLQKSGAFAICLK | 10.9
YVFLKIKLKKEIFFLIKL [GALNT3] | 6.22
GRCSDASAGAGTPNPWLQNRDPHPDRGSSAFEGFQAGLCGTEAQRGPGTWQRWGREEIQLPSLLPLLLQVPSNQELYILLVPQ [CCDC86] | 5.26
CNHLTRTIGAPVASAHCLSLEKWRNKCYIYLCV [FAM149A] | 6.79
SMSSDWRIRKIYGPTFDAIF [ZCCHC4] | 8.58
SPQDQGKEDGRTGAKLVGGRGGGGRDDRPWMCPQGPRSEVSTVLPARAPVPPLAATPSPIISFAPRLLRGAPVLAPAPTSAPD [FOXP3] | 1.18
WGGLGCQCCRDPGCPGLWGRTGSPHPPTPAKGGASPESPPVRPSEPTSHPPSSQGVRAPDGPGRHPGGPATAGEGT [TMEM184A] | 2.58
